Data set [1] in a line: stability of GAP activity to freezing/thawing or storage. As to conditions: freezing/thawing or storage at 4° C. for 6 months. The data set is classed as physicochemical.
The next data set relates to c-HaRas protein. In words: Ras GTPase stimulating activity: hydrolysis of [gamma-32P] GTP bound to c-HaRas protein, by GST fusion NF1 mutants. The data set is classed as biochemical, murine. The text has this:
N- and C- terminal deletion mutants were constructed by subcloning the corresponding PCR DNA fragments into the bacterial expression vector pGEX-2TH, as described in Maruta et al., supra. FIG. 4 sets forth the DNA fragments inserted into the expression vector. The number following NF of each mutant indicates the total amino acid residues included. The DNA fragments inserted include the DNA for human type I NF357, human type II NF1-GRD (amino acid residues 1355 to 1531 in addition to the insert of 21 amino acids) and murine c-HaRas (residues 1-189). The type II-specific insert of 21 amino acids is indicated by the number 21 above a triangle following codon 1371. This 21 amino acid insert is set forth in SEQ ID NO: 2. The solid rectangle indicates the GAP active center of 56 amino acids, whereas the shaded rectangle indicates a supporting domain of 22 amino acids.
The expression vectors were transfected into E.coli and the protein expressed as GST fusion proteins. The fusion proteins were thereafter purified from E.coli as glutathione S-transfeRase fusion proteins and affinity-purified on a glutathione (GSH)-agarose column, as described in Maruta, et al., supra.
The purified proteins were then screened for Ras GTPase stimulating activity. The assay was carried out for each of the NF357 deletion mutants.
The hydrolysis of [gamma-^32 P] GTP bound to c-HaRas protein was determined by incubating with bound protein at 25° C. for 20 minutes in the presence or absence of each NF1 mutant preparation in 100 ul of a buffer containing 50 mMTris-HCl, pH 7.5, 15 mMMgCl2, 2.5 mM EDTA, 3 mM ATP, 1 mM dithiothreitol (DTT) and 0.5 mg/ml bovine serum albumin (BSA), then precipitating the unhydrolyzed [gamma-32P] GTP with charcoal, and finally measuring the radioactivity of the [gamma-32P] inorganic phosphate in the supernatant, as described previously, Maruta et al., supra. Protein concentrations were determined by the Bradford method with BSA as a standard.

B1: GAP1C: the 709-1044 amino acid C-terminal GTPase activating domain of GAP1 (protein, UniProt P20936 709-1044, looked up, fragment)
chain: RARYSMEKIMPEEEYSEFKELILQKELHVVYALSHVCGQDRTLLASILLRIFLHEKLESLLLCTLNDREISMEDEATTLFRATTLASTLMEQYMKATATQFVHHALKDSILKIMESKQSCELSPSKLEKNEDVNTNLTHLLNILSELVEKIFMASEILPPTLRYIYGCLQKSVQHKWPTNTTMRTRVVSGFVFLRLICPAILNPRMFNIISDSPSPIAARTLILVAKSVQNLANLVEFGAKEPYMEGVNPFIKSNKHRMIMFLDELGNVPELPDTTEHSRTDLSRDLAALHEICVAHSDELRTLSNERGAQQHVLKKLLAITELLQQKQNQYTKTN
Take B1: in data set [1], the “GAP activity after treatment/storage” value was “completely inactivated”.

B2: NF78: NF1 fragment, amino acid residues 1441 to 1518 (protein)
chain: RPFNDFVKSNFDAARRFFLDIASDCPTSDAVNHSLSFISDGNVLALHRLLWNNQEKIGQYLSSNRDHKAVGRRPFDKM
As for B2, the “GAP activity after treatment/storage” value in data set [1] is listed as “not significantly affected”. Further, the “Ras GTPase stimulation (in words)” value with c-HaRas protein was “still able to stimulate Ras GTPase activity”. In the data set with c-HaRas protein (20 ug/ml NF1 mutants, 25° C., 20 minutes), the “Activation (fold), Ras GTPase activation” value is 6 fold. For the same molecule, the “EC50, concentration required for 50% hydrolysis of GTP bound Ras” value on c-HaRas protein (25° C., 20 minutes) was determined as 25 µg/mL. For the same molecule, in the data set with c-HaRas protein (deletion of the C-terminal 13 amino acids from NF91), the “reduction of GTPase activity relative to NF91” value is given as 2.5 fold.
